The values below come from patent publication US20240401082A1 (Sanofi, published 2024).

The target in experiment [1] is T1, human complement factor Bb (human, UniProt P00751 260-764).
T1 construct: Bought from Complement Technology; Biotinylated with EZ-Link Sulfo-NHS-LC-LC-Biotin when captured in BLI; also called FBb
In words: BLI (Octet), biotinylated target on streptavidin sensor. The text has this: (§1) Bio-layer interferometry (BLI) was used to assess the recombinant proteins' target engagement to and binding affinity for complement C1s enzyme (active C1s or “C1s” herein) and factor Bb (Bb) (Complement Technology, Tyler, TX, USA). C1s and Bb were biotinylated with EZ-Link™ Sulfo-NHS-LC-LC-Biotin (Thermo Fisher, Waltham, MA, USA) according to manufacturer instructions. Biotinylated C1s or Bb was loaded on Octet® Streptavidin (SA) Biosensors (Sartorius, Göttingen, Germany), followed by a concentration range of purified proteins. To assess dual target engagement, biotinylated active C1s or Bb was loaded onto sensors, followed by purified proteins (“first association phase”), followed by the non-captured complement target (Bb or active C1s, non-biotinylated; “second association phase”). The assays were performed at 30° C. using PBS with 0.1% Tween 20 as a diluent (FIG. 3).

Experiment [2] addresses T2, human complement C1s enzyme (activated C1s) (human, UniProt P09871 16-437; P09871 438-688).
T2 construct: Bought from Complement Technology; Disulfide-linked heterodimer; Biotinylated with EZ-Link Sulfo-NHS-LC-LC-Biotin when captured in BLI; also called active C1s; aC1s
T2 sequence 1: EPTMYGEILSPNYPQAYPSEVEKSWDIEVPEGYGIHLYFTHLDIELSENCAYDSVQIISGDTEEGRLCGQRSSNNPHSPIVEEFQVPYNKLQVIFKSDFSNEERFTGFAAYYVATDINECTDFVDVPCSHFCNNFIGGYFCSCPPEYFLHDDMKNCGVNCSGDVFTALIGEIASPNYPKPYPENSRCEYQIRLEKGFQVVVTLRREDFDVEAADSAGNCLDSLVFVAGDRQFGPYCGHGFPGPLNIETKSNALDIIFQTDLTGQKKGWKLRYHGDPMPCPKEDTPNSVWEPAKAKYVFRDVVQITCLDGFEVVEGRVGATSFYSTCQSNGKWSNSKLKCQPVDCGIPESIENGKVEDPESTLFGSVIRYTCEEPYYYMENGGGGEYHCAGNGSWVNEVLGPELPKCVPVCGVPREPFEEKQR
T2 sequence 2: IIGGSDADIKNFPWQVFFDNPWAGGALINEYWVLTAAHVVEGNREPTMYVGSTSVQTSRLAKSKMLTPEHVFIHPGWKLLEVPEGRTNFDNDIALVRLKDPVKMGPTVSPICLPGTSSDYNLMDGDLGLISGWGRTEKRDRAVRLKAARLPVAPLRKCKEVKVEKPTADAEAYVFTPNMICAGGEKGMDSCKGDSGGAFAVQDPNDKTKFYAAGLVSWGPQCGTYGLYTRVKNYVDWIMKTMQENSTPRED
Described as above.
Excerpt: as §1

Experiment [3] concerns the target T1, human complement factor Bb. Briefly: cell-based or functional assay.
For experiment [4], the target named is T2, human complement C1s enzyme (activated …). Briefly: cell-based or functional assay.

T1 sequence (P00751 260-764): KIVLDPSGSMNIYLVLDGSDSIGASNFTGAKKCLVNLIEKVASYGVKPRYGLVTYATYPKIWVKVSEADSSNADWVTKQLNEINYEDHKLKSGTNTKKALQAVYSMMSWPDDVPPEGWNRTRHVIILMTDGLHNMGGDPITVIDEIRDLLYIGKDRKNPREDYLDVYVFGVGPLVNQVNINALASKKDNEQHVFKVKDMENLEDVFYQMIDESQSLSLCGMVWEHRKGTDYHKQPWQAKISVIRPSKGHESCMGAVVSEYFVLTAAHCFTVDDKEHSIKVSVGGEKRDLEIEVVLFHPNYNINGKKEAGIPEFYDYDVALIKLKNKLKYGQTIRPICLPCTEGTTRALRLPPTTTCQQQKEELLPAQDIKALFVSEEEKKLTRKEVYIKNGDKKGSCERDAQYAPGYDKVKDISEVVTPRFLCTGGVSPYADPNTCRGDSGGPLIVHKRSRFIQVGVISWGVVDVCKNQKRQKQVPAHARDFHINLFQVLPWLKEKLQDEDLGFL

B1: construct #8: αBb scFab-(G4S)3-αC1s scFab (bispecific antibody)
chain: DIQMTQSPSTLSASVGDRVTITCKASQDVGTAVAWYQQKPGKAPKLLIYWASTRHTGVPDRFSGSGSGTDFTLTISSLQAEDFAVYFCHQHSSNPLTFGQGTKLEIKRTVAAPSVFIFPPSDEQLKSGTASVVCLLNNFYPREAKVQWKVDNALQSGNSQESVTEQDSKDSTYSLSSTLTLSKADYEKHKVYACEVTHQGLSSPVTKSFNRGECGGGGSGGGGSGGGGSGGGGSGGGGSGGGGSGGGGSEVQLVESGGGLVKPGGSLRLSCAASGFTFSNYAMSWVRQAPGKRLEWVATISNRGSYTYYPDSVKGRFTISRDNAKNSLYLQMNSLRAEDTALYYCARERPMDYWGQGTLVTVSSASTKGPSVFPLAPCSRSTSESTAALGCLVKDYFPEPVTVSWNSGALTSGVHTFPAVLQSSGLYSLSSVVTVPSSSLGTKTYTCNVDHKPSNTKVDKRVGGGGGSGGGGSGGGGSDIVLTQSPDSLAVSLGERATISCKASQSVDYDGDSYMNWYQQKPGQPPKILIYDASNLESGIPARFSGSGSGTDFTLTISSLEPEDFAIYYCQQSNEDPWTFGGGTKVEIKRTVAAPSVFIFPPSDEQLKSGTASVVCLLNNFYPREAKVQWKVDNALQSGNSQESVTEQDSKDSTYSLSSTLTLSKADYEKHKVYACEVTHQGLSSPVTKSFNRGECGGGGSGGGGSGGGGSGGGGSGGGGSGGGGSGGGGSQVQLVQSGAEVKKPGASVKLSCTASGFNIKDDYIHWVKQAPGQGLEWIGRIDPADGHTKYAPKFQVKVTITADTSTSTAYLELSSLRSEDTAVYYCARYGYGREVFDYWGQGTTVTVSSASTKGPSVFPLAPCSRSTSESTAALGCLVKDYFPEPVTVSWNSGALTSGVHTFPAVLQSSGLYSLSSVVTVPSSSLGTKTYTCNVDHKPSNTKVDKRV
notes: Signal peptide marked by boldface only
As to B1, in experiment [1], binding was characterised by a dissociation constant (Kd) of 1.8 nM; the koff – broadly, the first-order rate constant of dissociation – is 0.00021 s⁻¹; the kon – broadly, the rate constant with which the complex forms – amounted to 120000 M⁻¹ s⁻¹. Further, in experiment [2], the Kd (usually a measure of binding affinity in units of concentration) came to 2.1 nM, the koff was found to be 0.00063 s⁻¹ and the kon is 300000 M⁻¹ s⁻¹. Also, the “IC50 AP (Wieslab)” value in experiment [3] is 420 nM. In addition, the “IC50 CP (Wieslab)” value in experiment [4] turned out to be 87.7 nM.

B2: construct #19: αC1s scFab-(G4S)3-αBb F2A Fab (bispecific antibody)
chain: DIVLTQSPDSLAVSLGERATISCKASQSVDYDGDSYMNWYQQKPGQPPKILIYDASNLESGIPARFSGSGSGTDFTLTISSLEPEDFAIYYCQQSNEDPWTFGGGTKVEIKRTVAAPSVFIFPPSDEQLKSGTASVVCLLNNFYPREAKVQWKVDNALQSGNSQESVTEQDSKDSTYSLSSTLTLSKADYEKHKVYACEVTHQGLSSPVTKSFNRGECGGGGSGGGGSGGGGSGGGGSGGGGSGGGGSGGGGSQVQLVQSGAEVKKPGASVKLSCTASGFNIKDDYIHWVKQAPGQGLEWIGRIDPADGHTKYAPKFQVKVTITADTSTSTAYLELSSLRSEDTAVYYCARYGYGREVFDYWGQGTTVTVSSASTKGPSVFPLAPCSRSTSESTAALGCLVKDYFPEPVTVSWNSGALTSGVHTFPAVLQSSGLYSLSSVVTVPSSSLGTKTYTCNVDHKPSNTKVDKRVGGGGSGGGGSGGGGSEVQLVESGGGLVKPGGSLRLSCAASGFTFSNYAMSWVRQAPGKRLEWVATISNRGSYTYYPDSVKGRFTISRDNAKNSLYLQMNSLRAEDTALYYCARERPMDYWGQGTLVTVSSASTKGPSVFPLAPCSRSTSESTAALGCLVKDYFPEPVTVSWNSGALTSGVHTFPAVLQSSGLYSLSSVVTVPSSSLGTKTYTCNVDHKPSNTKVDKRV
light: DIQMTQSPSTLSASVGDRVTITCKASQDVGTAVAWYQQKPGKAPKLLIYWASTRHTGVPDRFSGSGSGTDFTLTISSLQAEDFAVYFCHQHSSNPLTFGQGTKLEIKRTVAAPSVFIFPPSDEQLKSGTASVVCLLNNFYPREAKVQWKVDNALQSGNSQESVTEQDSKDSTYSLSSTLTLSKADYEKHKVYACEVTHQGLSSPVTKSFNRGEC
On to B2, for which the “IC50 AP (Wieslab); curve not saturated, estimated” value in experiment [3] was around 2090 nM. The “IC50 CP (Wieslab)” value in experiment [4] was found to be 34 nM.

B3: construct #6: αBb scFv-(G4S)2-αC1s scFv (bispecific antibody)
chain: EVQLVESGGGLVKPGGSLRLSCAASGFTFSNYAMSWVRQAPGKRLEWVATISNRGSYTYYPDSVKGRFTISRDNAKNSLYLQMNSLRAEDTALYYCARERPMDYWGQGTLVTVSSGGGGSGGGGSGGGGSDIQMTQSPSTLSASVGDRVTITCKASQDVGTAVAWYQQKPGKAPKLLIYWASTRHTGVPDRFSGSGSGTDFTLTISSLQAEDFAVYFCHQHSSNPLTFGQGTKLEIKGGGGSGGGGSQVQLVQSGAEVKKPGASVKLSCTASGFNIKDDYIHWVKQAPGQGLEWIGRIDPADGHTKYAPKFQVKVTITADTSTSTAYLELSSLRSEDTAVYYCARYGYGREVFDYWGQGTTVTVSSGGGGSGGGGSGGGGSDIVLTQSPDSLAVSLGERATISCKASQSVDYDGDSYMNWYQQKPGQPPKILIYDASNLESGIPARFSGSGSGTDFTLTISSLEPEDFAIYYCQQSNEDPWTFGGGTKVEIK
Turning to B3, the “IC50 AP (Wieslab); curve not saturated, estimated” value in experiment [3] is around 1260 nM. In addition, the “IC50 CP (Wieslab)” value in experiment [4] is 118 nM.

B4: construct #5: αC1s scFv-(G4S)2-αBb scFv (bispecific antibody)
chain: QVQLVQSGAEVKKPGASVKLSCTASGFNIKDDYIHWVKQAPGQGLEWIGRIDPADGHTKYAPKFQVKVTITADTSTSTAYLELSSLRSEDTAVYYCARYGYGREVFDYWGQGTTVTVSSGGGGSGGGGSGGGGSDIVLTQSPDSLAVSLGERATISCKASQSVDYDGDSYMNWYQQKPGQPPKILIYDASNLESGIPARFSGSGSGTDFTLTISSLEPEDFAIYYCQQSNEDPWTFGGGTKVEIKGGGGSGGGGSEVQLVESGGGLVKPGGSLRLSCAASGFTFSNYAMSWVRQAPGKRLEWVATISNRGSYTYYPDSVKGRFTISRDNAKNSLYLQMNSLRAEDTALYYCARERPMDYWGQGTLVTVSSGGGGSGGGGSGGGGSDIQMTQSPSTLSASVGDRVTITCKASQDVGTAVAWYQQKPGKAPKLLIYWASTRHTGVPDRFSGSGSGTDFTLTISSLQAEDFAVYFCHQHSSNPLTFGQGTKLEIK
B4: in experiment [3], the “IC50 AP (Wieslab); curve not saturated, estimated” value is around 2830 nM. The “IC50 CP (Wieslab)” value in experiment [4] is 216 nM.

B5: construct #13: αC1s scFab-(G4S)2-αBb scFv (bispecific antibody)
chain: DIVLTQSPDSLAVSLGERATISCKASQSVDYDGDSYMNWYQQKPGQPPKILIYDASNLESGIPARFSGSGSGTDFTLTISSLEPEDFAIYYCQQSNEDPWTFGGGTKVEIKRTVAAPSVFIFPPSDEQLKSGTASVVCLLNNFYPREAKVQWKVDNALQSGNSQESVTEQDSKDSTYSLSSTLTLSKADYEKHKVYACEVTHQGLSSPVTKSFNRGECGGGGSGGGGSGGGGSGGGGSGGGGSGGGGSGGGGSQVQLVQSGAEVKKPGASVKLSCTASGFNIKDDYIHWVKQAPGQGLEWIGRIDPADGHTKYAPKFQVKVTITADTSTSTAYLELSSLRSEDTAVYYCARYGYGREVFDYWGQGTTVTVSSASTKGPSVFPLAPCSRSTSESTAALGCLVKDYFPEPVTVSWNSGALTSGVHTFPAVLQSSGLYSLSSVVTVPSSSLGTKTYTCNVDHKPSNTKVDKRVGGGGSGGGGSEVQLVESGGGLVKPGGSLRLSCAASGFTFSNYAMSWVRQAPGKRLEWVATISNRGSYTYYPDSVKGRFTISRDNAKNSLYLQMNSLRAEDTALYYCARERPMDYWGQGTLVTVSSGGGGSGGGGSGGGGSDIQMTQSPSTLSASVGDRVTITCKASQDVGTAVAWYQQKPGKAPKLLIYWASTRHTGVPDRFSGSGSGTDFTLTISSLQAEDFAVYFCHQHSSNPLTFGQGTKLEIK
notes: Residues 1-20 were left out as the signal peptide, which is marked by boldface only
In experiment [1], B5 displayed a Kd of 3 nM, a koff of 0.00022 s⁻¹ and a kon of 70000 M⁻¹ s⁻¹. In experiment [2], this molecule registered a Kd of 1 nM, a koff of 0.00029 s⁻¹ and a kon of 300000 M⁻¹ s⁻¹. In addition, the “IC50 AP (Wieslab)” value in experiment [3] was determined as 201 nM. For the same molecule, in experiment [4], the “IC50 CP (Wieslab)” value worked out at 44.4 nM.
